Laboratory results reported in the DeepSol protein solubility set.

Test: soluble on expression in E. coli; label from the status in PepcDB or PDB records

Sequence | soluble on expression in E. coli
MRTNVPDQQSTVQKLLDENSRLIDIIQEYLNQSRADEAIKHQQLLHRNLLHLSNLADPFLLSQLKDDGTAAAALPDPNQQQPQPGASGPPAPHLQQQQPQHSPQQGHPHPQQGLPAAHHRQQMMPPQAAPSPGGPMQPPHGFAPPPMGGGVPPEMMNHQAYQAQMRQQQQQPNGQAPPPVYPPFGQPAPQMSGQRMPYPYPPQGMPGYPGGPPPPPHGYEGYPPPGAQPGYMR | soluble
MRTQFINEQTMMIYFENEISESTFKKVQQTIQYIKSKNLSEITNMIPSYRAILIYFDNSGINGTELLENLELDENSNSRKQSHFKQRIIHIPVLYGGDFGPDLSEVANVNKLSQEEVIQIHTQQPYLIYMLGFMPGFPYLGGLDAKLHTPRRSEPRIKINAGSVGIANNQTGLYPMDSPGGWQIIGRTPIKVFDLNRTPMTLYEAGDYIQFYSINYQEFEKISNDINKGKFDIDKWVTYQDEYLEHHHHHH | not soluble
MRVAIPAEDDRGIKSNVSKHFGRSRYFVFVDIEGEDVKNVEVVEVPFEEHGPGDLPNFIKDHGAKIVLTYGIGRRAIEYFNSLGISVVTGVYGRISDVIKAFIGGKLKIDYDWKEKIEKEH | soluble
MRVLATAADLEKLINENKGRLIVVDFFAQWCGPCRNIAPKVEALAKEIPEVEFAKVDVDQNEEAAAKYSVTAMPTFVFIKDGKEVDRFSGANETKLRETITRHK | soluble
MRVYKPEDVPNVQLADSTRLVTDEAGLLSNAQEEVMNGRLRAIRSSHAVEFAVVTLPSIGDAPLEDFTLKLARQWGVGNEKNNNGLLLVLVLDQRRVRFETGYGLEGYLPDGLLSRIIHDRMIPHFRSGNYAEGLSEGVLAVQQVLDGSLEHHHHHH | soluble
MRYAIMVTGPAYGTQQASSALQFAHALLNEGHELASVFFYREGVYNANLLTSPASDEYDLVRVWQKLNTQHGVALNICVAAALRRGIIDETEAGRLELPSANLQPGFTLSGLGALAEASLTCDRVVQF | soluble
MRYDVVVVGSGVAGPIVARNVAKAGFSVLLVDKKPAIGAPKQCAEGLTINAFKQFDIPYDKRFINREIYGAKIYSPSGYTAELRYKEVSGVILERKVFDKMLAYYAAKAGAEVLARTEVVDVIRREGKIVGVKAKHEGEPMEIEAKVIVAADGVESTIARKAGIDTYAPPHEFDSGYEYEMIIEGFDPDLIHLFFGNEVAPRGYVWVFPKDEDRANVGIGINSDNEKTAKYYLDKWLKENNIPRNKILEVNVGLIPVGGFVKELVKENVLVVGDAARQVNPIHGGGMAEAMKASTIASKWIIKALEEENLELLKNYKEEWWKTEGPRMEKLLRLRRAMEKLTDEDLDVFVQLVSGTDLEKIAGGNYIEVVKALMKHPKVLMSRRRLEILKALLLEHHHHHH | soluble
MRYNQSDNKPFEEVLEASLSRRSILKGGLGISAMTAFGAFGLAGCNSSSSGTSASNGSGVSKAVLNFDSIPGSLTDAVSIPQGYTAQVLVPWGTPLNAQGSAWKNDGSNTSSDQLNALGMHHDGMHFFPLNDSTTDGLLCINHEYIDTSALHPNGPTVANGVRTIVDEVRKEINAHGVSVVRIQLEDNMWKLADTDPLNRRYTGATVMDLSGPVAHTALTVTRFSPDGSQARGTLNNCGNGYTPWGTYLTCEENWPGYFVNAGTRTEEQDRIGVDDKSTRYLWETLAGNSEERLDEFTRFNVAPTGTSSADDYRNEANGHGYIVEIDPYTQNSRAKKRTALGRFRHEGCAFGKLEAGKPVVFYSGHDSRFEYLYKFESAAAWDPADANPANRLATGDKYMDEGTLYVARFNEDSTGTWLPLTLDSVTTSGGTLADHFNSLAEIIINTAGAADLVGATPMDRPEWCSVDPFTGSVYLTLTNNTRRTDETNPANPRLNNKFGHVIRWDEGTSATDFTWDIFVFGSPANGDADTNRSGLNELNQFASPDGLAFDGRGILWIQTDNGADEVTSYTNDQMLAVVPSKLTNENGAQAVIGADNQAELKRFFVGPNGCEVTGFTISPDYKSLFVNIQHPGNWPYSDDAAQETPAGTTVRPRAATVVIRREDGGEIAVLEHHHHHH | soluble
MRYVIAVKSPIYGKQGAFLAYQFAESLIKKEHEISQIFFFQDGVSNGNALVYPANDEVNLQKHWQMFSITYNVPLHLCVAASQRRGVVDNLTTPTTAHYNLAEGFTIAGLGEFIAASLNADRVITL | soluble
MSACAPVHRDPPAPASLRAMPGARWLSGVVLGGLSLGLMACGPKDIEGLRTADYLGGDQRSGVLTYRETPPMGGPYNPLWQTCAAYAQPVYNEYAVHSLARGAVWVTYRPGLDAAELDKLKALLAGQPAALLSPYPNLPAPVVMTAWNRQLSAQTADDPRLTRFLKEILPENSAPEKGSPCARGFGGTR | soluble
MSAEQFVGRWKLVESENFEDYLKEVGVGLLLRKAACAAKPTLEIKVNGNKWHVNQLSTFKNTTLEFTLGVEFDETTPDGRQFKSTITIEDGKVVHVQKRIKDSDHDSVITRWFEGEKLITTLQSGSVISRRAYIRE | not soluble
MSAEVLVYRGSLVENRHRVSLALWGPEGLVAYAGDPGRVAYLRSSAKPFQALALYLTGAVERFGLTEEEVALATASHDGTPRHVEVAARFLGKLGLGPEHLVCGVHPPFSREARAALEAQGLAPTPLHHNCSGKHAGMLAAALALGAPAEGYHLPDHPVQRLNLATLEALSGARPGLATDGCSVPTFALSLARAARAFFLLADPGRAPEAYRTPLLRVREAMRRHPDLVAGPGSVDTLLMERLPVVAKRGADGYYGLALLEGPRGPLGVALKVEDGATLAREVAVVALLRALGLDPGKTPWDRPPVRNHRGLEVGHLEARLGLVWV | soluble
MSAHDRKEPAQRCPAALAAERLQIGLEHCGISADVHQGYGVSLVSVWTNLVVWTDGLAYRWWTGKISAKTGRRLYRVYAVDNPITVAHCVAQRYEELRKASHHSRGVVERTS | not soluble
MSAKIYRPAKTAMQSGTAKTNVWVLEFDAEVPRKIDPIMGYTSSSDMKQQVKLTFETQEQAEAYAQRKGIEYRVILPKEATRKVVSYTDNFRFNRTQPWTHLEHHHHHH | soluble
MSALRHIAVIDIGKTNAKVALVDLATSSEVALRRMANAPVRQAPYPHHDVESLWTFILDSLAGLNCEQRIDAISITTHGATGALVDASGELVLPVLDYEFDGPNGLAADYDAIRPPFAETGTPRLPLGLNLGAQFFWQQKRFPAAFAHATAILMYPQYWALRLTGVAANEVTSLGCHTDLWNPWTAGFSSLVDRLDWRGLMAPVRPARNRLGPILPALAARTGLDARTPVFCGLHDSNASLLPHLLSDAPPFSVVSTGTWVVSMAVGGREIALDAARDTLVNVNALGDPLPSARFMGGREFSVLTEGQPETWSEDDIGAVLARKTLLLPSTQQGSGPFPHQAATWLDAESINDGQRFAAVSFYLALMTATCLDLIGADGPTTVEGPFARNQLFVGMLAASTGRAVVASEATTGTSIGAALLASDQVMAYGKGERIEPPTDRAWADYANAWRVAVEARGLEHHHHHH | not soluble
MSANKELQQGYSDYSAASDQAALLNRLITAMQKGELTDELLEHIPELGDAKKLNDKLKYRKSILEKSIAEQAAKNKKNGVKATSTSSPSSSTSAPAEKKAKKDGKTGGAPPKQAKKVDYVTVEDYGSSIFGRLQSLFKKAIEDAFPGLDVPLLLAETPNPQFGDYQCNSAMPIAAKLKANKINKRPGDVAKEIQAKLPTKIDFVEKIDVMPAGFINIFLNTDYLRRQISLLASEGVKLPKLTRKRVLVDFSSPNIAKEMHVGHLRSTIIGDSICRLFEAVGFDVLRVNHIGDWGTQFGMLIAHLYDRFPDFLKKLPDISDLQAFYKESKKRFDEDEQFKKRAYEYVVKLQSHDGDIVKAWNTICDVSKKYNQIVYNYLDIKIKDVGESFYQDKMIELVKWVKTNKPDMLREEDGRQIMFPTGCDIPLTVVKSDGGFTYDTSDLAALKYRMLEEKCDWNIYVVDSGQSLHLETVYAAGRDFGWYDESIQRVEHVAFGLVLGDDKKKFKTRSGETVRLLDLLSEGVKRATEKLIEKGRETAMSEEQLVAARDAVAFGCVKYADLSHTRTQDYVFSFDRMLEDRGNTAVYLLYAYTRIQSIFEKDEVKNVDLVKYIASTPTLPLDHPGEFKLAKQLLKLSDCVLLVLDSLMLHQMCDYVYQLATLFHDFYNECYVIENKEGEKPFVHMHRLALCDVTRKVMSTCFKILGLREVNKM | not soluble
MSAPRLPVTVLTGFLGAGKTTLLSKLLENNKQRRLAILVNEFGEVSIDGGLLRDGENQGVEIHDLANGLVAYDDDADFLPTMLALWQRRQQIDHVLIETSGLALPSAVMAQLQSEALAPYFVLDATLAVVDTPLLLAGHFAPAGDGGKTDAVAALFDQQLGHADIVVLNKIDALSADQLLAAEEAVRKQAPSIRFIELAYEAKLDTRLTLGLHLHEASPAAHRHYGPVASMPGLAMRPLANQTLLDGHSHGGQAAHSHGLATHKHFHEQDPGWQSFMIRSKEPQCADKLAAALQAIAREEPLLRIKGFAACADSPGRLLAQGVRSRIELSRDDTLAAPRQAQLVFIGYHPSRPRVVALLRDITGAHWSLEHHHHHH | not soluble
MSARILVVDDIEANVRLLEAKLTAEYYEVSTAMDGPTALAMAARDLPDIILLDVMMPGMDGFTVCRKLKDDPTTRHIPVVLITALDGRGDRIQGLESGASDFLTKPIDDVMLFARVRSLTRFKLVIDELRQREASGRRMGVIAGAAARLDGLGGRVLIVDDNERQAQRVAAELGVEHRPVIESDPEKAKISAGGPVDLVIVNAAAKNFDGLRFTAALRSEERTRQLPVLAMVDPDDRGRMVKALEIGVNDILSRPIDPQELSARVKTQIQRKRYTDYLRNNLDHSLELAVTDQLTGLHNRRYMTGQLDSLVKRATLGGDPVSALLIDIDFFKKINDTFGHDIGDEVLREFALRLASNVRAIDLPCRYGGEEFVVIMPDTALADALRIAERIRMHVSGSPFTVAHGREMLNVTISIGVSATAGEGDTPEALLKRADEGVYQAKASGRNAVVGKAAHHHHH | soluble
MSARSLYQDTAVAALRDDLALALCAAAHHGLGEGVCNHFSVALPGQAGAFLLNPRGLMWSEVRAEDIVLVDAAGNKLAGRHEVEPTAMFIHAAIHQVAGKACVLHTHMPYATALTLTEARMLDTTLSQNAMRFHGRVAADRRYNGLALDAAEGERIARAMDGADIAFLGNHGVVVCGERIDYAFDDLYYLERACCAQVLAESSGRPLVPLDAALAASVAGQARSERLQSTLFFEALRRALGLEHHHHHH | not soluble
MSASDGDNTEQTGRRRSFGNLFGSTRVPFSSLSDIYANQSTFAKDQGVQSEVDVADAWSQHHAPTRDQYVQSEIITAVETSSQYEVQTKDKEVEAICSTANRTTQTCHATNIAGTNSESCLIEKLANSLLEHLQARRPIKARTAFPIYLQQPEQLQLLPPPDQQSAPVPPSHPLQNSEARQEDLEQTEMPQASQQIGINETSLNDADSQSFFHSRLHQTEQREETNSNSMQSIHSQVNPPASQETMESHFPEMINSRKSDHQLCFSFKKVTSERCSSFPTRHDGSSHFARSSSGLLGSMSSQQQRSQFPVPQEEGNQAEDMRGAQQPHNARNLFGGVGGMFPSMPNSSGGQGPDWQNNHFIRPFGQPAAGMMSWHPGMMPSHMNNSAAPSSFFESPFMPPYDVFMQQQMLLHSQYAAWEQQRNHAMMYQNAQNQNSANVNPSFADIPSAAPISQPEVNVNENQIVPEETERLEADLEIENTVDAIIVTDVGSVNQAVSGVNSIARETEEINNQDVRNETPVEDFGSIISAISITENRNESPMPSASETDDTSPHTSRSRYGSSVAISTGMKRARLEPSQSPPGSSRKNSRNETTKKNSKTPSSTIDKEPTSSKRTRKAPARYEAEWNAEQGGDTRRAKRWSKDFYKAPSKK | not soluble
